± gives the uncertainty stated by the source.

This passage reports amyloid nucleation score results from the supplement of paper PMC12042874.

The nature of the data set: amyloid nucleation score (Sup35N fusion, yeast selection) (log enrichment); library NNK3; higher = more nucleation; inactive = no reads after selection. In outline:
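Yeast lacking psi expressed peptides of 20 random codons fused to Sup35N, received 100 μM copper sulfate for 24 hours, and were then grown for 7 days at 30°C on medium lacking adenine and uracil. Illumina sequencing of input and output plasmid inserts provided the reads. Nucleation scores are DiMSum log enrichments of output over input, centred on the mode of non-aggregating sequences. Any sequence with under 100 input reads was excluded.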
The substance MLCKYTCLICYGYRTKRSSE yielded an amyloid nucleation score of 0.684 ± 0.17.
The result for MLDAQSASWYYFRGSLFDVR reads “inactive”.
In the case of MLDISMEVSGCSILS it was -0.261 ± 0.52; in that of MLGVMCLYQVVFIDHSYSYR, “inactive”.
The result for MLITYTLYCVICLGC reads 1.46 ± 0.072; that for MLLGRLSLEVKFEWIFPRIG, 0.687 ± 0.14; that for MLMVDDYEYMRFQMAGMVYM, “inactive”.
For MLPVIHIGVVSPRTFEQSSC, the amyloid nucleation score entry was “inactive”.
In the case of MLSVPDVVRFWMFKFYKFSW it was “inactive”; in that of MLYRCLAKYRMWHYVDLSLL, “inactive”.
The result for MMSMNMNLSYCYGFMGSHYS reads 1.47 ± 0.097; that for MMTIRSSMLAKGLVNALATV, “inactive”.
MNGMICISNCFKDGHVTLNK gave an amyloid nucleation score of 1.26 ± 0.16.
The substance MPFPVGNFHQGDNMNVSQCG yielded an amyloid nucleation score of 0.61 ± 0.12.
The result for MPLTFTSRSSDVICLNVGSG reads -0.232 ± 0.62; that for MPSRHFLGY, “inactive”; that for MQPGYQCDNVVRSCHDAHGY, “inactive”.
The result for MRAGWLYFWASANGDNQWEA reads “inactive”; that for MRARLANKQGMGPRTRVASV, “inactive”.
The result for MRCSDGPPKWNHD reads -0.277 ± 0.88.
Consider MRFDNVTMRVLLCFS, for which the amyloid nucleation score entry was “inactive”.
The result for MRLMEQYFICCVM reads 1.06 ± 0.17; that for MRTRGQTFTWGHYGCLLIDE, “inactive”; that for MRVVECLMRSLCRLDVRVHC, “inactive”.
The result for MRVVEYMTSLLSLIFYMGQK reads “inactive”.
The result for MRYFFLTRNLGLRAEPVC reads “inactive”; that for MSFTMMCMSFCSSILRYNLS, “inactive”.
Consider MSIDPHILVLVGEWLVCLKL, for which the amyloid nucleation score entry is “inactive”.
In the case of MSIIKKIG it was “inactive”; in that of MSLRLVMWFSNLVSYTV, “inactive”; in that of MSPLGTCYRILKLDYCKYAV, -0.328 ± 0.55.
The result for MSRMMSLNMECTSGMPESQV reads “inactive”.
In the case of MSVRPL it was “inactive”; in that of MSVSSCLTPGDGNESHWNSR, “inactive”.
Regarding MSYSFKAISAHNKQSVNNVW, the amyloid nucleation score entry was “inactive”.
In the case of MTILYYDS it was “inactive”; in that of MTLHAILFLTRSLDALYLLT, “inactive”.
In the case of MTRVNFYFLFFELLLMAFGV it was “inactive”.
The result for MTVHDIHYLS reads “inactive”; that for MTYAVCGYSIFHKITRTRFG, “inactive”.
With MTYHDGTGLFGVVL, the amyloid nucleation score result is “inactive”.
The result for MVCNGFRDDRVMIVK reads “inactive”; that for MVLGELCVPGIFALCRFECN, “inactive”.
The result for MVLYGAHECRDDKSVSLTRC reads “inactive”; that for MVSSLRALCPQHFVCSVVCM, 0.885 ± 0.14; that for MVYGVSAVEVKSSLVGWVVA, “inactive”.
In the case of MWFTLKMYTMRCCFEVTLRK it was “inactive”; in that of MWSDLGV, -0.173 ± 0.87.
Regarding MWYLTDWIDCFCLSNMNICT, the amyloid nucleation score turned out to be 1.81 ± 0.063.
In the case of MYFILASSISILFGIKVFPM it was “inactive”; in that of MYQDPCIHSVCCWIM, 1.28 ± 0.096; in that of MYQSLAYFASDLRIHWHMRK, 0.729 ± 0.14.
Turning to MYRCNVGLLGVFPRCNPYDA, the amyloid nucleation score result is “inactive”.
In the case of MYVQVS it was -0.795 ± 0.91; in that of MYWLHYKVHNYNSCVI, “inactive”; in that of NACSARMGVVYNMLPSGESR, “inactive”.
The result for NADCAYCLLFNLRWSVCVRT reads -0.067 ± 0.36.
The result for NALCSHTILLYGEVMLKSWL reads “inactive”.
On to NALFHRI, for which the amyloid nucleation score result was “inactive”.
NAMGTFSMGDI: the amyloid nucleation score entry was “inactive”.
In the case of NCELGYARPLGDAMLNRAWF it was “inactive”.
The result for NCFEYLYPRVTDTELNRFFL reads “inactive”; that for NCIAFGWLWSELRN, “inactive”.
For the substance NCIIR, the amyloid nucleation score entry was “inactive”.
With NCMEINVYFTFVEMQLAELD, the amyloid nucleation score is 2.69 ± 0.055.
In the case of NCNIWIEVQFTASDVIISWV it was 1.69 ± 0.066.
The result for NCNPFCIRLWFPNEYICW reads “inactive”; that for NCQSTTTQGILCISLSYMEI, “inactive”; that for NDFVRSADKDFGSDRFSNVV, “inactive”.
On to NDKVYRVGRTNLYNV, for which the amyloid nucleation score result is “inactive”.
In the case of NDSLTLIWNGGSGYDVIKFE it was “inactive”; in that of NDSSQLLITI, “inactive”; in that of NEALSERQYRAMLTETLVAG, “inactive”.
The substance NEGWPLWQWSSAVKHTFSKR came in with an amyloid nucleation score of 0.422 ± 0.31.
With NENTNLIRLNGTDMRAYKLW, the amyloid nucleation score entry is “inactive”.
Take NESFGTARSAGDGMKNVPGP: the amyloid nucleation score entry is “inactive”.
In the case of NEVVQSLTRSIFRRYSKSAM it was 0.129 ± 0.98; in that of NFCLVRGVNLANPFSNDCKS, “inactive”.
In the case of NFFCASRVMGLLMIF it was “inactive”; in that of NFFESLMVMSDKASLSVMK, “inactive”; in that of NFFSA, -0.51 ± 0.73.
The result for NFFTL reads “inactive”; that for NFFVKTNRHGNVTTFGGR, “inactive”; that for NFGQKQNIWAWTVYCPDPCE, “inactive”.
NFIQVMAIIGLFAVHRGCVT showed an amyloid nucleation score of 0.758 ± 0.14.
For NFLYWHRWVVWSSMSSYRKP, the amyloid nucleation score is -0.348 ± 0.63.
Turning to NFPYYSEYFFLCIRDSTSKS, the amyloid nucleation score result is “inactive”.
The result for NFQNSVLFNMV reads “inactive”.
In the case of NFSFGGLIISGCIMRNWGLQ it was 2.92 ± 0.077; in that of NFSVTYEFFGQSI, 0.292 ± 0.32.
The result for NFTRC reads “inactive”; that for NFWEYQSECWRVTQW, “inactive”; that for NGCSS, “inactive”.
As to NGCTW, the amyloid nucleation score entry is “inactive”.
The result for NGDYDIIRSTCYTSKVYQSV reads “inactive”; that for NGFSFRLGWH, 1.55 ± 0.1; that for NGLGSTRMNQGHKLVFTNSI, “inactive”.
The result for NGLVCQKWRPYSI reads “inactive”.
The result for NGNFWCFVLVLS reads 0.595 ± 0.24.
On to NGSGGWLNINNISEGRWRTG, for which the amyloid nucleation score result is “inactive”.
With NGTATADRSNKSVPFPSI, the amyloid nucleation score entry is “inactive”.
In the case of NGWCHYWVWASIYDPNEISA it was “inactive”; in that of NGWYKVGLMA, “inactive”; in that of NGYTNASS, “inactive”.
The result for NHKPLWFFDVATTGTGLNR reads “inactive”; that for NHSES, “inactive”.
In the case of NIDFLLSYRTMSKFYPNIRM it was “inactive”.
For NIFRMRNQVIRSVLNVHVMT, the amyloid nucleation score result is “inactive”.
In the case of NILLND it was “inactive”; in that of NIRYFYAFRLA, “inactive”; in that of NISLELDVFCTTNNMG, 1.74 ± 0.089.
In the case of NISVLIRCLWNFSEGKAFLA it was “inactive”; in that of NIVERGSDLRGLCKTFNDIA, “inactive”; in that of NKAYCWTLYLGMINDCIRFY, “inactive”.
The result for NKKSSAMYCQGIFLTFILLV reads “inactive”; that for NKLCYSSDLYWRVTDKDEHR, “inactive”.
Regarding NKSRTYCSARRLHRGKFRLI, the amyloid nucleation score entry is “inactive”.
In the case of NLAMWMDSECLRVSN it was “inactive”.
The result for NLAYTMRGTELICTYVSILP reads “inactive”; that for NLCDVGRMLNCRRTSFGYMF, “inactive”; that for NLCRAI, 0.256 ± 0.36.
Regarding NLCVMPRTTGPLS, the amyloid nucleation score entry is “inactive”.
In the case of NLEEHIRCFKGDRDPYLFF it was “inactive”; in that of NLFMMHV, “inactive”.
The result for NLFYNEEDVLIQFVYQRTIW reads “inactive”; that for NLGLQDFNCNWGFTYGGLTK, “inactive”; that for NLHTTEIKFSPLLWKISSTW, 0.313 ± 0.34.
The result for NLKSWFFCIVHCIRLHASVN reads “inactive”; that for NLLAMRLWQAQSMKRSLGFL, “inactive”; that for NLLKSTYSVIASCASLLDLV, “inactive”.
In the case of NLNYWAFDYADKLIEHSCVR, the amyloid nucleation score entry was “inactive”.
